In patent publication US8691944B2, “Fibronectin polypeptides and methods of use” (The Research Foundation for the State University of New York, priority 2005, dated 2014):

B1: FNIII12-14: recombinant FN type III repeats 12-14, heparinII-binding domain (protein)
chain: MGSAIPAPTDLKFTQVTPTSLSAQWTPPNVQLTGYRVRVTPKEKTGPMKEINLAPDSSSVVVSGLMVATKYEVSVYALKDTLTSRPAQGVVTTLENVSPPRRARVTDATETTITISWRTKTETITGFQVDAVPANGQTPIQRTIKPDVRSYTITGLQPGTDYKIYLYTLNDNARSSPVVIDASTAIDAPSNLRFLATTPNSLLVSWQPPRARITGYIIKYEKPGSPPREVVPRPRPGVTEATITGLEPGTEYTIYVIALKNNQKSEPLIGRKKTTSHHHHHHC
B2: FNIII1-7: FN type III repeats 1-7 (protein)
chain: GPVEVFITETPSQPNSHPIQWNAPQPSHISKYILRWRPKNSVGRWKEATIPGHLNSYTIKGLKPGVVYEGQLISIQQYGHQEVTRFDFTTTSTSTPVTSNTVTGETTPFSPLVATSESVTEITASSFVVSWVSASDTVSGFRVEYELSEEGDEPQYLDLPSTATSVNIPDLLPGRKYIVNVYQISEDGEQSLILSTSQTTAPDAPPDTTVDQVDDTSIVVRWSRPQAPITGYRIVYSPSVEGSSTELNLPETANSVTLSDLQPGVQYNITIYAVEENQESTPVVIQQETTGTPRSDTVPSPRDLQFVEVTDVKVTIMWTPPESAVTGYRVDVIPVNLPGEHGQRLPISRNTFAEVTGLSPGVTYYFKVFAVSHGRESKPLTAQQTTKLDAPTNLQFVNETDSTVLVRWTPPRAQITGYRLTVGLTRRGQPRQYNVGPSVSKYPLRNLQPASEYTVSLVAIKGNQESPKATGVFTTLQPGSSIPPYNTEVTETTIVITWTPAPRIGFKLGVRPSQGGEAPREVTSDSGSIVVSGLTPGVEYVYTIQVLRDGQERDAPIVNKVVTPLSPPTNLHLEANPDTGVLTVSWERSTTPDITGYRITTTPTNGQQGNSLEEVVHADQSSCTFDNLSPGLEYNVSVYTVKDDKESVPISDTIIP
B3: FNIII3-6: recombinant FN type III repeats 3-6 (protein)
chain: MGSAPDAPPDTTVDQVDDTSIVVRWSRPQAPITGYRIVYSPSVEGSSTELNLPETANSVTLSDLQPGVQYNITIYAVEENQESTPVVIQQETTGTPRSDTVPSPRDLQFVEVTDVKVTIMWTPPESAVTGYRVDVIPVNLPGEHGQRLPISRNTFAEVTGLSPGVTYYFKVFAVSHGRESKPLTAQQTTKLDAPTNLQFVNETDSTVLVRWTPPRAQITGYRLTVGLTRRGQPRQYNVGPSVSKYPLRNLQPASEYTVSLVAIKGNQESPKATGVFTTLQPGSSIPPYNTEVTETTIVITWTPAPRIGFKLGVRPSQGGEAPREVTSDSGSIVVSGLTPGVEYVYTIQVLRDGQERDAPIVNKVVTTSHHHHHHC
B4: FNIII12-V15: composite heparinII-binding and variably-spliced IIICS domains (protein)
chain: MGSAIPAPTDLKFTQVTPTSLSAQWTPPNVQLTGYRVRVTPKEKTGPMKEINLAPDSSSVVVSGLMVATKYEVSVYALKDTLTSRPAQGVVTTLENVSPPRRARVTDATETTITISWRTKTETITGFQVDAVPANGQTPIQRTIKPDVRSYTITGLQPGTDYKIYLYTLNDNARSSPVVIDASTAIDAPSNLRFLATTPNSLLVSWQPPRARITGYIIKYEKPGSPPREVVPRPRPGVTEATITGLEPGTEYTIYVIALKNNQKSEPLIGRKKTDELPQLVTLPHPNLHGPEILDVPSTVQKTPFVTHPGYDTGNGIQLPGTSGQQPSVGQQMIFEEHGFRRTTPPTTATPIRHRPRPYPPNVGEEIQIGHIPREDVDYHLYPHGPGLNPNASTGQEALSQTTISWAPFQDTSEYIISCHPVGTDEEPLQFRVPGTSTSATLTGLTRGATYNVIVEALKDQQRHKVREEVVTVGNSVNEGTSHHHHHHC
B5: FNIII12-13: FN type III repeats 12-13 (protein)
chain: AIPAPTDLKFTQVTPTSLSAQWTPPNVQLTGYRVRVTPKEKTGPMKEINLAPDSSSVVVSGLMVATKYEVSVYALKDTLTSRPAQGVVTTLENVSPPRRARVTDATETTITISWRTKTETITGFQVDAVPANGQTPIQRTIKPDVRSYTITGLQPGTDYKIYLYTLNDNARSSPVVIDAST
B6: FNIII12-15: heparin II binding domain of FN (protein)
chain: MGSTIPAPTDLKFTQVTPTSLSAQWTPPNVQLTGYRVRVTPKEKTGPMKEINLAPDSSSVVVSGLMVATKYEVSVYALKDTLTSRPAQGVVTTLENVSPPRRARVTDATETTITISWRTKTETITGFQVDAVPANGQTPIQRTIKPDVRSYTITGLQPGTDYKIYLYTLNDNARSSPVVIDASTAIDAPSNLRFLATTPNSLLVSWQPPRARITGYIIKYEKPGSPPREVVPRPRPGVTEATITGLEPGTEYTIYVIALKNNQKSEPLIGRKKTGQEALSQTTISWAPFQDTSEYIISCHPVGTDEEPLQFRVPGTSTSATLTGLTRGATYNVIVEALKDQQRHKVREEVVTVGNSVNEGTSHHHHHHC

Columns and labels:
PDGF-BB [1] = target: T1, PDGF-BB (Homo sapiens, UniProt P01127); experiment: Surface plasmon resonance kinetic binding of PDGF-BB to FN domains; settings: for Kd: kinetic binding
T1 sequence (P01127 82-190 limits assumed): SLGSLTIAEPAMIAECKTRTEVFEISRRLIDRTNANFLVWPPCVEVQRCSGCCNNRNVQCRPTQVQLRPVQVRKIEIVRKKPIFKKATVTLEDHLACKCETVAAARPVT
Excerpt: VEGF, TGF-β1, PDGF-BB and FGF-2 bound IIICS with similar affinities (KD˜10^−7 M). […] The tested biological activities of GFs bound to a FN functional domain were retained or enhanced. […] In addition, our studies provide important information regarding the delivery of GFs and the sequestering of GFs, as appropriate, for therapeutic (e.g., surgical) or aesthetic indications, including wound healing treatments (where an aim is GF delivery) and cancer treatments (where an aim is GF sequestration). Where FN fragments are used to deliver GFs, they may be described as maintaining, activating, stabilizing or enhancing GF activity. […]

TGF-β1 [2] = target: T2, TGF-β1 (Homo sapiens, UniProt P01137); experiment: Equilibrium binding of TGF-β1 to FN, FN domains and peptides
T2 sequence (P01137 279-390 limits assumed, species assumed): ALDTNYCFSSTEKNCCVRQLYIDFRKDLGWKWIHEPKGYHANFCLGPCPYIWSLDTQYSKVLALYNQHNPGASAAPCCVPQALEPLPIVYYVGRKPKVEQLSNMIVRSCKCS
Procedure: These peptides represent domains that follow the sequence pattern [QN]-X(1,2)-[ST]-X(0,1)-[IG]-[QS]-[KRQ]-[YTM]-[IG]-X(4,5)-X(0,1)-[KR]-X(1,2)-X(1,2)-[RT]-X(1,2)-[KQTS]-X(2)-T and that bind TGF-β1 with a certain affinity. […] We know of no other peptides in the human genome database that follow this pattern.
(§1) To determine whether FN domains bind TGF-β1 and bFGF, equilibrium and kinetic binding was performed.

TGF-β1 [3] = target: T2, TGF-β1; experiment: Plasmon surface resonance kinetic binding of TGF-β1 to FN domains; settings: for Kd: plasmon (surface) resonance, kinetic binding
Excerpt: (§2) VEGF, TGF-β1, PDGF-BB and FGF-2 bound IIICS with similar affinities (KD˜10^−7 M). […] The tested biological activities of GFs bound to a FN functional domain were retained or enhanced. […] In addition, our studies provide important information regarding the delivery of GFs and the sequestering of GFs, as appropriate, for therapeutic (e.g., surgical) or aesthetic indications, including wound healing treatments (where an aim is GF delivery) and cancer treatments (where an aim is GF sequestration). Where FN fragments are used to deliver GFs, they may be described as maintaining, activating, stabilizing or enhancing GF activity.
as §1

PDGF-BB [4] = target: T1, PDGF-BB; experiment: Equilibrium binding of PDGF-BB to FN, FN domains and peptides
Excerpt: (§3) This led us to speculate that PDGF was binding to the engineered ECM through the H or HV domain since vascular endothelial GF (VEGF), a member of the PDGF superfamily, had been reported to bind H and remain active while bound.
(§4) The survival of FN-null fibroblasts in the presence to PDGF-BB required substrate coated with intact FN or FNIII8-11+a PDGF-binding FN domain. […] To address this directly, we performed equilibrium binding assays with PDGF-BB to FN adsorbed to a surface or coupled to agarose beads. In addition, we also investigated the ability of other growth factors to bind intact FN.

[5] = tested on: mouse fibroblasts null for FN (FN−/−); experiment: Survival of FN-null fibroblasts on FN domains with PDGF-BB; format: cell-based; settings: for FN-null cell survival / proliferation with PDGF-BB: FNIII8-11 + the named domain, or named protein
Excerpt: To further investigate the response of cells to PDGF-BB bound to FN domains, we investigated the survival response of mouse fibroblasts null for FN (FN−/−). First we determined the response of FN-null cells to PDGF-BB in the absence of serum or other sources of exogenous FN. […] […] […] Importantly, differential response of FN-null cells, plated on different FN domains, to PDGF-BB was not secondary to differences in attachment as judged by cell counts two hours after plating. The FNIII8-11 central cell binding domain was present in all circumstances.

bFGF = bFGF (Homo sapiens, UniProt P09038); experiment: Equilibrium binding of bFGF (FGF-2) to FN, FN domains and peptides; settings: method not specified (equilibrium and kinetic binding performed); read-out: KD, bFGF binding
Chain of bFGF (P09038 143-288): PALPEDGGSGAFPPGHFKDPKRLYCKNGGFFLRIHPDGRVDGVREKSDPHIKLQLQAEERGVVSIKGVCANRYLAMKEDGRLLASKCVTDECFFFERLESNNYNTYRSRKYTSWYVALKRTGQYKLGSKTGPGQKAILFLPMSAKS
Procedure: as §4, §1

VEGF = experiment: Plasmon resonance binding of VEGF to FN domains
Excerpt: as §2

FGF-2 = FGF-2 (Homo sapiens, UniProt P09038); experiment: Plasmon resonance binding of FGF-2 to FN domains
Chain of FGF-2 (P09038 143-288): as above
Excerpt: as §2

fibroblast chemotaxis = experiment: Fibroblast chemotaxis to GFs in the presence or absence of FN domains; format: cell-based; settings: in solution
Procedure: To determine whether FN functional domains modulated TGF-β1, bFGF or PDGF-BB activity in solution, fibroblast chemotaxis was performed in response to the GFs in the presence or absence of FN domains.

GFs = experiment: Growth factor binding to FN domains (GFs in general)
Excerpt: as §3

EGF = EGF (Homo sapiens, UniProt P01133); experiment: Binding of EGF to FN, FN domains and peptides
Chain of EGF (P01133 971-1023 limits assumed, species assumed): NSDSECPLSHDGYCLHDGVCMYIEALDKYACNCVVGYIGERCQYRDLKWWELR
Excerpt: as §2, §4, §1

[6] = method not specified (equilibrium and kinetic binding performed)

Molecule | Kd (PDGF-BB [1]) [nM] | Kd (TGF-β1 [2]; [6]) [nM] | Kd (TGF-β1 [3]) [nM] | Kd (PDGF-BB [4]) [nM] | FN-null cell survival / proliferation with PDGF-BB [5] | Kd (bFGF) [nM] | PDGF-BB binding (in words) (PDGF-BB [1]) | Kd (TGF-β1 [2]; equilibrium binding) [nM] | enhancement of chemotactic activity of TGF-β1, bFGF and PDGF-BB (fibroblast chemotaxis) | Kd (FGF-2) [nM] | also measured
B1 | 55 | 7.6 | 7.6 | 35 | enhance survival | 1.9 |  |  |  |  | FN-null cell survival with PDGF ([5]; plastic precoated with 0.15 μM GST-tagged FNIII8-11 ± the named domain, or named protein, PDGF-BB added 1 day after plating, 3 days): increased survival
B2 | 100 |  | 18 | 75 |  | 4.1 | all four GFs bound | 17 |  |  | VEGF binding (in words) (VEGF): all four GFs bound; TGF-β1 binding (in words) (TGF-β1 [3]; plasmon resonance): all four GFs bound; FGF-2 binding (in words) (FGF-2): all four GFs bound
B3 |  |  |  |  |  |  | no binding |  | did not enhance |  | binding of any GF (in words) (GFs): In no case did any GF bind; PDGF-BB binding (in words) (PDGF-BB [4]): did not; support of FN-null fibroblast survival in the presence of PDGF-BB ([5]; substrate coating, FNIII8-11 alone or + named domain): did not support cell survival
B4 | 17 |  |  | 21 | enhance survival | 37 |  | 97 | enhanced the chemotactic activity | 37 | Kd (VEGF): 0.6 nM; EGF binding (in words) (EGF): all GFs, except EGF, bound; chemotactic activity when assayed alone (fibroblast chemotaxis): no chemotactic activity; GF binding on addition of salt or acid (GFs; up to 2.5 M NaCl added or pH lowered to about 2.0): failed to demonstrate any diminution
B5 |  |  |  | 75 |  |  |  |  |  |  | 
B6 | 68 | 16 | 16 | 6.8 |  | 130 |  |  |  | 170 | 
